Measurements from patent publication US20030028924.

What was measured:
[1] = target: T1, Purified oat phytochrome A, Pfr spectral form, autophosphorylated, P06593
T1 chain: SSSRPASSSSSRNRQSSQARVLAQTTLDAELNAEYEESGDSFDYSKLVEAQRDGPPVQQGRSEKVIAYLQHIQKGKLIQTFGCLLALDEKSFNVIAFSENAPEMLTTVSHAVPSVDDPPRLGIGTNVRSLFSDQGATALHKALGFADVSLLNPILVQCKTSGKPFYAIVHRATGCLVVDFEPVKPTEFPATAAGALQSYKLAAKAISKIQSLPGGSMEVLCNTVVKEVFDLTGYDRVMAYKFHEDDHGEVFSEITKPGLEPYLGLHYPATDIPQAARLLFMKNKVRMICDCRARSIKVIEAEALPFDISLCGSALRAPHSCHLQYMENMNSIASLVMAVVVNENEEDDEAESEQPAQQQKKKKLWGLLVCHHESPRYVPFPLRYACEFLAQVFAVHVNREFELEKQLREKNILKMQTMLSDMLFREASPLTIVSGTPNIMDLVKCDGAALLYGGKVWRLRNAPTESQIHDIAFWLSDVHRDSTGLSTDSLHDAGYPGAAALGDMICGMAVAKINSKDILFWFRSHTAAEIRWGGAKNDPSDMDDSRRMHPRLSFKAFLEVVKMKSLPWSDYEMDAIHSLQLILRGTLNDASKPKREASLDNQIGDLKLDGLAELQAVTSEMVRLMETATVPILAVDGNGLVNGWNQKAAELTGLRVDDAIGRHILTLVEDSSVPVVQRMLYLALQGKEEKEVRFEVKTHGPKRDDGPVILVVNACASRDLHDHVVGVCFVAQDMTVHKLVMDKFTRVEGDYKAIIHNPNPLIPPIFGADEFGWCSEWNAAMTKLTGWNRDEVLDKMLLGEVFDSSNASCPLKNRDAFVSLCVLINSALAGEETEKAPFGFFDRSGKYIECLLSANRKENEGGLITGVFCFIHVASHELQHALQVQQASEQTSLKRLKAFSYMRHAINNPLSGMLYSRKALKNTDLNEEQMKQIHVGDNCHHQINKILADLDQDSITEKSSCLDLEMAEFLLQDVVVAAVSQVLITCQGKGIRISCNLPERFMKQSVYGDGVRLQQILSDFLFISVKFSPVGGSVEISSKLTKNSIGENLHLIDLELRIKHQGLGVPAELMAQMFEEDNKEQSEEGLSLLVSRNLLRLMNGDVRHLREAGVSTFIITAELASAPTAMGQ

[2] = target: T2, Purified oat phytochrome A, Pr spectral form, autophosphorylated, P06593
T2 chain: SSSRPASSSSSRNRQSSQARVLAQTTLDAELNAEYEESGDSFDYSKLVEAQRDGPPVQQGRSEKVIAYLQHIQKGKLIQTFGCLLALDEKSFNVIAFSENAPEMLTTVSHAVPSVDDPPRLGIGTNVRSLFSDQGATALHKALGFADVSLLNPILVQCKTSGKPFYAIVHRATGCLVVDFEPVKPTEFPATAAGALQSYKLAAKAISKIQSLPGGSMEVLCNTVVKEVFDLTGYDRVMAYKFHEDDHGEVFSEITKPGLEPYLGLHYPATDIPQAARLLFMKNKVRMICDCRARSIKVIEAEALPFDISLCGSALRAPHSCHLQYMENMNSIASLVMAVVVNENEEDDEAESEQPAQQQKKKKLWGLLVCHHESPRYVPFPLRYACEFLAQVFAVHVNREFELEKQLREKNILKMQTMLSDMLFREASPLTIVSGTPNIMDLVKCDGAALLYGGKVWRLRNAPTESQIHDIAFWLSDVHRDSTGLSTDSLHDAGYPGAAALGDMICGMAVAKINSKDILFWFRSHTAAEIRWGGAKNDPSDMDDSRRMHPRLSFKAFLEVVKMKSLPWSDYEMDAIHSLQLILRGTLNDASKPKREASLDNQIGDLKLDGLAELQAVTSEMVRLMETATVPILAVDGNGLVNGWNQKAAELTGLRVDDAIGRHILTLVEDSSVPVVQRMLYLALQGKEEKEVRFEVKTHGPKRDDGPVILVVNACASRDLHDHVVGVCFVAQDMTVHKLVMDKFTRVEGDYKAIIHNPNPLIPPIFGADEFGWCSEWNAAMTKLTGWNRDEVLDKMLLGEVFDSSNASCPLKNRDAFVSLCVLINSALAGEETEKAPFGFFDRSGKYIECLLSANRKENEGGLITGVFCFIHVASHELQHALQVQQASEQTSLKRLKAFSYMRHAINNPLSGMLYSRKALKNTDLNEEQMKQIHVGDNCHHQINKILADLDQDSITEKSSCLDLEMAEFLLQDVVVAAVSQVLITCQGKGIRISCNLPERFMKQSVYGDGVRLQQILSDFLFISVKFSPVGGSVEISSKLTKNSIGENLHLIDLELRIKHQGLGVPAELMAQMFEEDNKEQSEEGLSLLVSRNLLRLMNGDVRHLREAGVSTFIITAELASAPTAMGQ

[3] = target: T3, Purified oat phytochrome A, autophosphorylated in the presence of gamma-[32P]ATP, P06593
T3 chain: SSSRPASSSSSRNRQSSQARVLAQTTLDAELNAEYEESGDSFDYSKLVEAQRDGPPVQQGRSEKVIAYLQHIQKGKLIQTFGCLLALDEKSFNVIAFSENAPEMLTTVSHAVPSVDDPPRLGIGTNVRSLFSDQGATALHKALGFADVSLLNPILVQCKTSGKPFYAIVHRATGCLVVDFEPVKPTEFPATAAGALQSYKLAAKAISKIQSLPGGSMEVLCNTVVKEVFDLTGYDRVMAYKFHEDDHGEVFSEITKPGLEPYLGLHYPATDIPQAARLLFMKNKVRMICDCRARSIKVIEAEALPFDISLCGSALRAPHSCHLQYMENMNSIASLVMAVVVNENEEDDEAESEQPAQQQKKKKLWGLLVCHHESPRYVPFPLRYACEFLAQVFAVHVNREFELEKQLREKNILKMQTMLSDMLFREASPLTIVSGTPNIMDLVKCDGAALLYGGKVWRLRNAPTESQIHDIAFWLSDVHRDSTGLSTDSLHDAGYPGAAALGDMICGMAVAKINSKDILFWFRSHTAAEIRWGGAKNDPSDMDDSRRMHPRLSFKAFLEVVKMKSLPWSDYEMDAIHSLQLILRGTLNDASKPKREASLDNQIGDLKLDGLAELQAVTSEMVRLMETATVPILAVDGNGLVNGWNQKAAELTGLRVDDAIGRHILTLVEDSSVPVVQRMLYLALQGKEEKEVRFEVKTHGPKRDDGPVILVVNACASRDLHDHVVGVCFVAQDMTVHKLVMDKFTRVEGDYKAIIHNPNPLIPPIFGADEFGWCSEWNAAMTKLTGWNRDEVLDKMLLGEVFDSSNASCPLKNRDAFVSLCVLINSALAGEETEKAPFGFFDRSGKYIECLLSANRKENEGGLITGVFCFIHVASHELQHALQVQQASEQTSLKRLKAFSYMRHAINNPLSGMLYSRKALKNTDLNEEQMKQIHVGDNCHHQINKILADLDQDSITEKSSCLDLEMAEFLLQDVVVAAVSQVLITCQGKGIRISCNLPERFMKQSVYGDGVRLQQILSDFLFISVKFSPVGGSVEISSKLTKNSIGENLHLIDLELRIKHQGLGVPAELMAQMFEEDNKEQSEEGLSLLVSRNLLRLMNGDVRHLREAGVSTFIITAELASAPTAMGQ

B1: Recombinant PP2AC-JD protein expressed in E. coli BL21 from pGEX-4T-1 as a GST fusion, GST tag removed by thrombin (protein)
chain: DLDQWISKVKDGQHLLEDELQLLCEYVKEILIEESNVQPVNSPVTVCGDIHGQFHDLMKLFQTGGHVPETNYIFMGDFVDRGYNSLDVFTILLLLKARYPANITLLRGNHESRQLTQVYGFYDECQRKYGNANATRYCTDVFDYLTLSAIIDGTVLCVHGGLSPDIRTIDQIRVIERNCEIPHEGPFCDLMWSDPEDIETWAVSPRGAGWLFGSRVTSEFNHINNLDLVCRAHQLVQEGLKYMFQDKGLVTVWSAPNYCYRCGNVASILSFNENMEREVKFFTETEENNQMRGPRTGVPYFL
[1]
  dephosphorylation of 32P-autophosphorylated phytochrome A (SDS-PAGE, autoradiography): more efficiently dephosphorylated by the PP2AC-JD than the Pr spectral form
[2]
  dephosphorylation of 32P-autophosphorylated phytochrome A (SDS-PAGE, autoradiography): The Pfr phytochrome A was more efficiently dephosphorylated by the PP2AC-JD than the Pr spectral form
[3]
  dephosphorylation of 32P-autophosphorylated phytochrome A (SDS-PAGE, autoradiography): efficiently dephosphorylated by the PP2AC-JD only in the presence of Fe^2+ or Zn^2+
